Measured values taken from publication PMC8597827, “The effect of S427F mutation on RXRα activity depends on its dimeric partner†”.

Biological target: RXRα WT (human, UniProt P19793 1-462)
Test: EMSA; no ligand; two shifts; competed by 5x and 25x unlabeled DR1; 10 mM Tris HCl pH 8.0, 150 mM KCl, 0.5 mM EDTA, 0.1% Triton X-100, 12.5% glycerol, 0.2 mM DTT, 1 ug poly(dI-dC), 100 pmol probe in 20 uL; 10 min RT then 5 min 37 C; 5% PAGE in 0.5x TBE at 4 C
Conditions: protein: recombinant; chain copies: 2; blunt

RXRα WT, sequence (P19793 whole entry): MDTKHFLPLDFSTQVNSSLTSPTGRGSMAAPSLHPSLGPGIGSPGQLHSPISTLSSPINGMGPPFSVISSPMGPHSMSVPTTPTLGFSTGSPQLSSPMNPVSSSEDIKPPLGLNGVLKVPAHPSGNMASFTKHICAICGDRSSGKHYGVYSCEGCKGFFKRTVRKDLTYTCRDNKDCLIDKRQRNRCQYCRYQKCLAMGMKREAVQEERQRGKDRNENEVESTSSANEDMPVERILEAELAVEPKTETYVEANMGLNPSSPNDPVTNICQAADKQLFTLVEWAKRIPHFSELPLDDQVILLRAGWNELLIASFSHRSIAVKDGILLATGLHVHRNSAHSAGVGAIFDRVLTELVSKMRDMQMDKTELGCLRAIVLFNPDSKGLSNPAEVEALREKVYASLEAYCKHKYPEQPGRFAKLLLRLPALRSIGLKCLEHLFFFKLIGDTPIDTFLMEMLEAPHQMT

B1: DR1 (dsDNA)
DNA 1: TCGAGGGTAGGGGTCAGAGGTCACTCGTCGA
DNA 2: TCGACGAGTGACCTCTGACCCCTACCCTCGA
binding result: binds
